Values belong to the binder of their own block, whether it stands above or below them.
Legend:
Test in all cases: holdup assay
Design in all cases: key: below the threshold = too weak to quantify, mostly under pKd 3.1 to 4
MAST1, Q9Y2H9 = target: MAST1, Q9Y2H9
LIN7A, O14910 = target: T1, LIN7A, O14910
T1 sequence (O14910 103-200, limits assumed, looked up): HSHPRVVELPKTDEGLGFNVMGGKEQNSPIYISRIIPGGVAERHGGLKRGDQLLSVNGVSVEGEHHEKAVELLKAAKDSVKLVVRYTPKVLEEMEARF

GRIP2_4, Q9C0E4 = target: GRIP2_4, Q9C0E4
Inadl_2, Q8NI35 = target: Inadl_2, Q8NI35
NHERF4_2, Q86UT5 = target: NHERF4_2, Q86UT5
IL16_3, Q14005 = target: IL16_3, Q14005
GRIP1_7, Q9Y3R0 = target: T2, GRIP1_7, Q9Y3R0
T2 sequence (Q9Y3R0 999-1096, limits assumed, looked up): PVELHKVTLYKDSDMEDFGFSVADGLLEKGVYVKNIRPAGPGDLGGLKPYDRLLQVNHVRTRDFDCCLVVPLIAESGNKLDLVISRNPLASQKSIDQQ

SNTG2, Q9NY99 = target: T3, SNTG2, Q9NY99
T3 sequence (Q9NY99 68-166, limits assumed, looked up): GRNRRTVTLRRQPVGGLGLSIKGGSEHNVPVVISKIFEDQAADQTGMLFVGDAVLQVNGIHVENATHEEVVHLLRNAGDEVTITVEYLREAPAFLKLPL

FRMPD2_1, Q68DX3 = target: FRMPD2_1, Q68DX3
SNX27, Q96L92 = target: SNX27, Q96L92
IL16_1, Q14005 = target: IL16_1, Q14005
DLG4_2, P78352 = target: DLG4_2, P78352
NHERF4_1, Q86UT5-2 = target: NHERF4_1, Q86UT5-2
DLG4_3, P78352 = target: DLG4_3, P78352
HTRA2, O43464 = target: HTRA2, O43464
DLG1_2, Q12959 = target: DLG1_2, Q12959
GRIP1_4, Q9Y3R0 = target: T4, GRIP1_4, Q9Y3R0
T4 sequence (Q9Y3R0 467-571, limits assumed, looked up): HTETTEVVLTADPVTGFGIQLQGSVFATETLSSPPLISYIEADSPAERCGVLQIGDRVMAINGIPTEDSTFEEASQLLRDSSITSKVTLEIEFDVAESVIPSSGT

GRIP1_3, Q9Y3R0 = target: T5, GRIP1_3, Q9Y3R0
T5 sequence (Q9Y3R0 247-346, limits assumed, looked up): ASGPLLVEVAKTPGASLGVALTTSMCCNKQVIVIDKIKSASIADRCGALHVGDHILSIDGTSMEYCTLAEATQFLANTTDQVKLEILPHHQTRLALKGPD

CARD11, Q9BXL7 = target: T6, CARD11, Q9BXL7
T6 sequence (Q9BXL7 662-765, limits assumed, looked up): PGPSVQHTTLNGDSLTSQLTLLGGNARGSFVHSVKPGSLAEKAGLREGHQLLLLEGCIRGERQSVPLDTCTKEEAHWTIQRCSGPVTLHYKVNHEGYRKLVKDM

GRID2IP_2, A4D2P6 = target: GRID2IP_2, A4D2P6
SYNJ2BP, P57105 = target: T7, SYNJ2BP, P57105
T7 sequence (P57105 8-110, limits assumed, looked up): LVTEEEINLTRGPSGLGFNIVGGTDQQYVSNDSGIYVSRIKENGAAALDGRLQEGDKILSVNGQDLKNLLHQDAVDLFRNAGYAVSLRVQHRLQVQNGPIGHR

FRMPD2_3, Q68DX3 = target: FRMPD2_3, Q68DX3
DVL3, Q92997 = target: T8, DVL3, Q92997
T8 sequence (Q92997 244-331, limits assumed, looked up): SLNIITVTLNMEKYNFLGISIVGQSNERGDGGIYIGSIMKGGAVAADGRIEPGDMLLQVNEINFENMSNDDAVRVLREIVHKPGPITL

MAGI1_2, Q96QZ7 = target: MAGI1_2, Q96QZ7
NHERF4_4, Q86UT5 = target: NHERF4_4, Q86UT5
GRIP2_7, Q9C0E4 = target: GRIP2_7, Q9C0E4
PDZD7_3, Q9H5P4 = target: T9, PDZD7_3, Q9H5P4
T9 sequence (Q9H5P4 857-944, limits assumed, looked up): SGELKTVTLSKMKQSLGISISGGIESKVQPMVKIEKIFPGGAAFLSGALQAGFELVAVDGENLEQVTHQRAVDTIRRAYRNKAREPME

MPP7, Q5T2T1 = target: T10, MPP7, Q5T2T1
T10 sequence (Q5T2T1 134-230, limits assumed, looked up): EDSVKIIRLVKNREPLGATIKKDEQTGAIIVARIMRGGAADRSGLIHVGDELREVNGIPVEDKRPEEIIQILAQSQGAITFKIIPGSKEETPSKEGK

[1] = plain residues with an end cap or a label only (N-terminal biotin on a linker: ado-ado)
[2] = plain residues with an end cap or a label only (N-terminal biotin on a linker: ahx)

Sequence of FRMPD2_1, Q68DX3 (Q68DX3 770-861): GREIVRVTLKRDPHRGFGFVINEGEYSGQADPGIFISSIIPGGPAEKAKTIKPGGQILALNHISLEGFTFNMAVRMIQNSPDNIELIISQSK
Sequence of HTRA2, O43464 (O43464 355-458): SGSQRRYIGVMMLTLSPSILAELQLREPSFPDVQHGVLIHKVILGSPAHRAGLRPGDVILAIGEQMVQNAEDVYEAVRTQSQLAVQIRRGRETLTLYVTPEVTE
Sequence of MAST1, Q9Y2H9 (Q9Y2H9 962-1065): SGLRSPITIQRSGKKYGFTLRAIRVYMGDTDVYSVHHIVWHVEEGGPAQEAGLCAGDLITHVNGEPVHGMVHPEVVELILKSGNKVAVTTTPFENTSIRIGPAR
Sequence of NHERF4_4, Q86UT5 (Q86UT5 464-550): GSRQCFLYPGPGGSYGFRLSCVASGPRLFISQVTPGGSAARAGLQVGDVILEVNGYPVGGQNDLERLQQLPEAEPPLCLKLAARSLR
Sequence of NHERF4_1, Q86UT5-2 (Q86UT5 other isoform, or with tags, fused parts or gaps): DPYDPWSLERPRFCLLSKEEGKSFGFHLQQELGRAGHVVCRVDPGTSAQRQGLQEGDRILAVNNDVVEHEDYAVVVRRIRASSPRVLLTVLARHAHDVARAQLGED
Sequence of GRIP2_4, Q9C0E4 (Q9C0E4 446-548): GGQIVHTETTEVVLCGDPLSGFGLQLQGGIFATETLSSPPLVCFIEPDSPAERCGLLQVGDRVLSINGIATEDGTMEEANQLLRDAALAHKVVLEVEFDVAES
Sequence of DLG1_2, Q12959 (Q12959 314-412): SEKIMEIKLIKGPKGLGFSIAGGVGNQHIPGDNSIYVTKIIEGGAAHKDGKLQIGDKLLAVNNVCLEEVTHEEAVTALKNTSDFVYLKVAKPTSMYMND
Sequence of GRIP2_7, Q9C0E4 (Q9C0E4 934-1023): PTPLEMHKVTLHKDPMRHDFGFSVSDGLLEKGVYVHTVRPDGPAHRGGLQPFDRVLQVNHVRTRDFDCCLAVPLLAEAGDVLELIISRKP
Sequence of IL16_3, Q14005 (Q14005 1107-1207): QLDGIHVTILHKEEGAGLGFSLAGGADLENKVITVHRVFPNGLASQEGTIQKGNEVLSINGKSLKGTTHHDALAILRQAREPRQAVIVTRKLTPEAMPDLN
Sequence of MAGI1_2, Q96QZ7 (Q96QZ7 456-580): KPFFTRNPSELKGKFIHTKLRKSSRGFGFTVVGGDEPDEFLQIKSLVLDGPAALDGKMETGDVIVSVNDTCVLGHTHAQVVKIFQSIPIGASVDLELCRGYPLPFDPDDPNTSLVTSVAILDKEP
Sequence of Inadl_2, Q8NI35 (Q8NI35 238-335): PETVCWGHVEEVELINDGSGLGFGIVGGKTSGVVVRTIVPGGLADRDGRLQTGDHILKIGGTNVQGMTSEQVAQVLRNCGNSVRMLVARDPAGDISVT
Sequence of GRID2IP_2, A4D2P6 (A4D2P6 272-370): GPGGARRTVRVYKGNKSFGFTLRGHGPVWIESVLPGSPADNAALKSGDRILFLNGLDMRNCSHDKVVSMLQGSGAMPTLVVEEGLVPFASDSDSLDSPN
Sequence of DLG4_2, P78352 (P78352 155-259): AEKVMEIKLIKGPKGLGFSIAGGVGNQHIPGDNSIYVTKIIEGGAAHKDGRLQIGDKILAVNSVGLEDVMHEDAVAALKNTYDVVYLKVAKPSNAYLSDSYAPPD
Sequence of NHERF4_2, Q86UT5 (Q86UT5 220-308): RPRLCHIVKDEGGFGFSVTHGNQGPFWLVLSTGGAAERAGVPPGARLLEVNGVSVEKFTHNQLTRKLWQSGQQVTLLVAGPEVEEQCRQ
Sequence of FRMPD2_3, Q68DX3 (Q68DX3 1073-1166): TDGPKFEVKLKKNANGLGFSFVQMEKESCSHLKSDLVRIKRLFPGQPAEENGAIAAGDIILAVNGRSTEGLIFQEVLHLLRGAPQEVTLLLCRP
Sequence of DLG4_3, P78352 (P78352 306-403): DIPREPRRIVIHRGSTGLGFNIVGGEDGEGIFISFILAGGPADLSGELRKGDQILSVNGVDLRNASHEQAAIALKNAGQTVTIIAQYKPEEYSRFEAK
Sequence of IL16_1, Q14005 (Q14005 210-306): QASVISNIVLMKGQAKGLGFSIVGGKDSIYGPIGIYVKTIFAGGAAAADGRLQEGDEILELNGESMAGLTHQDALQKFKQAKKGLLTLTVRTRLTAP

pKd (MAST1, Q9Y2H9; [1]): below the threshold
pKd (LIN7A, O14910; [1]): below the threshold
pKd (GRIP2_4, Q9C0E4; [1]): below the threshold
pKd (Inadl_2, Q8NI35; [1]): below the threshold
pKd (NHERF4_2, Q86UT5; [1]): below the threshold
pKd (IL16_3, Q14005; [1]): below the threshold
pKd (GRIP1_7, Q9Y3R0; [1]): below the threshold
pKd (SNTG2, Q9NY99; [1]): 3.62
pKd (FRMPD2_1, Q68DX3; [1]): below the threshold
pKd (SNX27, Q96L92; [1]): below the threshold
pKd (IL16_1, Q14005; [1]): below the threshold
pKd (DLG4_2, P78352; [1]): below the threshold
pKd (NHERF4_1, Q86UT5-2; [1]): below the threshold
pKd (DLG4_3, P78352; [1]): 3.5
pKd (HTRA2, O43464; [1]): 3.5
pKd (DLG1_2, Q12959; [1]): below the threshold
pKd (GRIP1_4, Q9Y3R0; [1]): 3.9
pKd (GRIP1_3, Q9Y3R0; [1]): below the threshold
pKd (CARD11, Q9BXL7; [1]): below the threshold
pKd (GRID2IP_2, A4D2P6; [1]): below the threshold
pKd (SYNJ2BP, P57105; [1]): below the threshold
pKd (FRMPD2_3, Q68DX3; [1]): below the threshold
pKd (DVL3, Q92997; [1]): 3.59
pKd (MAGI1_2, Q96QZ7; [1]): below the threshold
pKd (NHERF4_4, Q86UT5; [1]): 4.58
pKd (GRIP2_7, Q9C0E4; [1]): 4.04
pKd (PDZD7_3, Q9H5P4; [1]): below the threshold
pKd (MPP7, Q5T2T1; [1]): 4.46
Binder: DFLSTFHIRI [CIB2, O75838]

pKd (MAST1, Q9Y2H9; [2]): 3.85
pKd (LIN7A, O14910; [2]): below the threshold
pKd (GRIP2_4, Q9C0E4; [2]): below the threshold
pKd (Inadl_2, Q8NI35; [2]): below the threshold
pKd (NHERF4_2, Q86UT5; [2]): below the threshold
pKd (IL16_3, Q14005; [2]): below the threshold
pKd (GRIP1_7, Q9Y3R0; [2]): below the threshold
pKd (SNTG2, Q9NY99; [2]): below the threshold
pKd (FRMPD2_1, Q68DX3; [2]): below the threshold
pKd (SNX27, Q96L92; [2]): 4.31
pKd (IL16_1, Q14005; [2]): 3.95
pKd (DLG4_2, P78352; [2]): 4.27
pKd (NHERF4_1, Q86UT5-2; [2]): below the threshold
pKd (DLG4_3, P78352; [2]): 4.35
pKd (HTRA2, O43464; [2]): below the threshold
pKd (DLG1_2, Q12959; [2]): 4.3
pKd (GRIP1_4, Q9Y3R0; [2]): below the threshold
pKd (GRIP1_3, Q9Y3R0; [2]): below the threshold
pKd (CARD11, Q9BXL7; [2]): below the threshold
pKd (GRID2IP_2, A4D2P6; [2]): below the threshold
pKd (SYNJ2BP, P57105; [2]): 5.2
pKd (FRMPD2_3, Q68DX3; [2]): below the threshold
pKd (DVL3, Q92997; [2]): below the threshold
pKd (MAGI1_2, Q96QZ7; [2]): 4.83
pKd (NHERF4_4, Q86UT5; [2]): below the threshold
pKd (GRIP2_7, Q9C0E4; [2]): below the threshold
pKd (PDZD7_3, Q9H5P4; [2]): below the threshold
pKd (MPP7, Q5T2T1; [2]): below the threshold
Binder: QPRTWLQSPV [RTKN, Q9BST9]
